Measured values as given in paper PMC6468809, “Structural Analysis of the 42 kDa Parvulin of Trypanosoma brucei” (Biomolecules, 2019).
*1 amine or outer side, *2 acyl side, *3 side chain or, on linkers, in order; H or OH if unused. Where no end group is shown, it is not given here. [ ]: non-standard residue; d: D form. pT = C[C@@H](OP(=O)(O)O)[C@H](N)C(=O)O; Suc = O=C(CCC(=O)[*:2])[*:1]

T1: TbPar42 PPIase domain (264-383) (T. brucei, succinyl on the N-terminus; phosphothreonine at position 2; C-terminal amide / 15N-labelled, wild type; entity position 1 = Pro264 (offset 263), so checks are His271, Cys333, Leu374; residual GP from)
T1 chain: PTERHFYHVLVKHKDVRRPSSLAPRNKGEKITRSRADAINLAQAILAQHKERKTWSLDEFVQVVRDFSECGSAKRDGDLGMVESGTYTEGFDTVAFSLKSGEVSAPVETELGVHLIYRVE

B1: Suc-Ala-pThr-Pro-Ala-NH2 (peptide)
peptide: Suc-A[pT]PA-NH2
SMILES: C[C@H](NC(=O)[C@@H]1CCCN1C(=O)[C@@H](NC(=O)[C@H](C)NC(=O)CCC(=O)O)[C@@H](C)OP(=O)(O)O)C(N)=O
notes: also called phosphorylated model peptide; source: synthetic peptide, bought: CASLO

Tests used:
[1] = target: TbPar42 N-terminal extended FHA domain (1-177) (Trypanosoma brucei, UniProt Q57XM6 1-177); experiment: NMR titration; unlabelled Ala-Glu-Ala-pThr-Ala-Glu-Xaa peptide added stepwise up to 8 mM to 250 µM 15N-labelled NterFHA; 1H-15N-HSQC, 27 °C; mean KD values; settings: both partners purified
[2] = target: T1, TbPar42 PPIase domain (264-383); experiment: NMR titration; 440 uM 15N-labelled NterFHA or PPIase in 50 mM potassium phosphate, pH 6.26, 90%/10% H2O/D2O; peptide added stepwise to 13 mM; 1H-15N-HSQC or SOFAST spectra, 700 MHz, 27 °C; settings: both partners purified

| Binder | Kd [1] | Kd [2] |
| --- | --- | --- |
| AEA[pT]AEE [Ala-Glu-Ala-pThr-Ala-Glu-Glu] | 5.4 mM |  |
| AEA[pT]AEI [Ala-Glu-Ala-pThr-Ala-Glu-Ile] | 4.1 mM |  |
| AEA[pT]AED [Ala-Glu-Ala-pThr-Ala-Glu-Asp] | 3.4 mM |  |
| AEA[pT]AEV [Ala-Glu-Ala-pThr-Ala-Glu-Val] | 3.9 mM |  |
| AEA[pT]AES [Ala-Glu-Ala-pThr-Ala-Glu-Ser] | 3.1 mM |  |
| B1 |  | ~10 mM |
